Article PMC2779222 (The Journal of Cell Biology, 2009)
Blank lines part the entries; values can stand above or below the molecule they belong to.

Assays:
[1] = biological target: ΔN–CEACAM1-3L–YFP (rat) (UniProt P16573); assay: cross-linking
[2] = biological target: the molecule itself; assay: cross-linking

- stoichiometry N [1]: 2
Molecule: ΔN–CEACAM1-3L–YFP (from UniProt P16573 35-519) (domain or fragment)

B1: CEACAM1-4ΔCyto–YFP (domain or fragment, rat, UniProt P16573 35-448, looked up)
chain: QVTVDAVPPNVVEEKSVLLLAHNLPQEFQVFYWYKGTTLNPDSEIARYIRSDNMSKTGPAYSGRETIYSNGSLFFQNVNKTDERAYTLSVFDQQFNPIQTSVQFRVYPALQKPNVTGNNSNPMEGEPFVSLMCEPYTNNTSYLWSRNGESLSEGDRVTFSEGNRTLTLLNVRRTDKGYYECEARNPATFNRSDPFNLDVIYGPDAPVISPPDIYLHQGSNLNLSCHADSNPPAQYFWLINEKLQTSSQELFISNITTNNSGTYACFVNNTVTGLSRTTVKNITVFEPVTQPSIQITNTTVKELGSVTLTCFSKDTGVSVRWLFNSQSLQLTDRMTLSQDNSTLRIDPIKREDAGDYQCEISNPVSFRISHPIKLDVIPDPTQGNSGLSEGAIAGIVIGSVAGVALIAALAYFLY
- stoichiometry N [2]: 2
